{"source": "patent US9125413B1", "about": "“Nematicide composition comprising CED-4 peptide” (California State University Fresno, priority 2014, dated 2015)", "molecules": {"B1": {"name": "CED-4: 549 amino acid C. elegans protein (SEQ. ID 1, GenBank CAA48781.1), about 62 KD, produced recombinantly in E. coli; fed as CED-4 producing bacteria (protein)", "chain": "MLCEIECRALSTAHTRLIHDFEPRDALTYLEGKNIFTEDHSELISKMSTRLERIANFLRIYRRQASELGPLIDFFNYNNQSHLADFLEDYIDFAINEPDLLRPVVIAPQFSRQMLDRKLLLGNVPKQMTCYIREYHVDRVIKKLDEMCDLDSFFLFLHGRAGSGKSVIASQALSKSDQLIGINYDSIVWLKDSGTAPKSTFDLFTDILLMLKSEDDLLNFPSVEHVTSVVLKRMICNALIDRPNTLFVFDDVVQEETIRWAQELRLRCLVTTRDVEISNAASQTCEFIEVTSLEIDECYDFLEAYGMPMPVGEKEEDVLNKTIELSSGNPATLMMFFKSCEPKTFEKMAQLNNKLESRGLVGVECITPYSYKSLAMALQRCVEVLSDEDRSALAFAVVMPPGVDIPVKLWSCVIPVDICSNEEEQLDDEVADRLKRLSKRGALLSGKRMPVLTFKIDHIIHMFLKHVVDAQTIANGISILEQRLLEIGNNNVSVPERHIPSHFQKFRRSSASEMYPKTTEETVIRPEDFPKFMQLHQKFYDSLKNFACC"}}, "type_in_all_cases": "in vivo, Caenorhabditis elegans", "key": {"[1]": {"test_system": "C. elegans wild-type (N2 strain) nematodes", "assay": "Fecundity of C. elegans wild-type nematodes fed E. coli producing CED-4", "description": "(§1) Constructed expression cassettes generate CED-4 protein in bacteria. […] In this experiment, the ced-4 gene was sub-cloned into the pBAD-DEST49 vector. The pBAD-DEST49-ced-4 construct, and the pBAD-DEST49 empty vector were tested for synthesis of the protein CED-4. The E. coli bacteria strain (TOP 10 chem.) was grown, and once the optical density OD600 reached 0.5, the bacteria was induced by adding L-Arabinose 20% and incubated for four hours at 37° C., 226 rpm in rotary shaker (C24, incubator shaker, Edison, N.J. USA). The production of CED-4 protein was analyzed by SDS 10% acrylamide gel and commassie blue staining.\nThe genes ced-4 and ced-3 are required for PCD in somatic cells of C. elegans, and a loss-of-function (lf) mutation in any one of them results in increased survival rates of cells that would otherwise be eliminated by PCD. In the experiment summarized by FIG. 5, bacteria carrying the ced-4 gene construct and bacteria carrying an empty vector were grown as described above in Section E, and used to feed C. elegans wild-type nematodes, mutant C. elegans ced-3 nematodes, and mutant C. elegans ced-4 nematodes at L1/L2 stages (refer to FIG. 1). For the experiment described in FIG. 5, C. elegans wild-type (wt), ced-3 (n717) and ced-4 (n1162) strains were synchronized, and the hatched nematodes were raised on a diet consisting of E. coli bacteria producing CED-4. Both nematodes and bacteria were sustained on NGM media and incubated at a temperature between 25° C. and 28° C.\n(§2) The effects of CED-4 ingestion on all three different strains of C. elegans used were quantified by population size throughout several generations. After the hatched nematodes fed on either the control bacteria or the CED-4 producing bacteria for 72 hours, the nematodes in each experiment were scored for fecundity over the course of 120 hrs. Fecundity was measured by counting the number of hatched offspring. There were ten experiments replicated for each of the three analyzed C. elegans strains."}, "[2]": {"test_system": "C. elegans ced-3 (n717) mutant nematodes", "assay": "Fecundity of ced-3 mutant C. elegans fed E. coli producing CED-4", "description": "as §1\n(§3) The genes ced-4 and ced-3 are required for PCD in somatic cells of C. elegans, and a loss-of-function (lf) mutation in any one of them results in increased survival rates of cells that would otherwise be eliminated by PCD. […]\nas §2"}, "[3]": {"test_system": "C. elegans ced-4 (n1162) mutant nematodes", "assay": "Fecundity of ced-4 mutant C. elegans fed E. coli producing CED-4", "description": "as §1, §3, §2"}, "[4]": {"details": "versus non-CED-4 producing bacteria"}}, "data": [{"molecule": "B1", "values": [{"measurement": "number of hatched offspring (mean)", "setting": "[1]; 2 wild-type embryos per experiment, fed bacteria expressing CED-4 72 hours, fecundity scored over 120 hrs, ten experiments", "value": "about 115 hatched offspring"}, {"measurement": "increase in rate of cell death", "setting": "[1]; wild-type fed bacteria expressing CED-4 for 6 days", "value": "approximately 2 fold"}, {"measurement": "offspring produced relative to those fed bacteria containing empty expression vectors", "setting": "[1]; wild-type, CED-4 fed, t-test p≦0.01", "value": "less than 50%"}, {"measurement": "reduction in fecundity", "setting": "[1]; wild-type, ingesting bacteria expressing CED-4", "value": 50, "unit": "%"}, {"measurement": "number of hatched offspring (mean)", "setting": "[2]; 2 ced-3 mutant embryos per experiment, ingesting CED-4 producing bacteria, ten experiments", "value": "about 220 hatched offspring"}, {"measurement": "decrease in ced-3 mutant fecundity due to exogenous CED-4", "setting": "[2]; [4]", "value": "statistically insignificant"}, {"measurement": "number of hatched offspring (mean)", "setting": "[3]; 2 ced-4 mutant embryos per experiment, exposed to CED-4 producing bacteria, ten experiments", "value": "about 236 hatched offspring"}, {"measurement": "decrease in ced-4 mutant fecundity due to exogenous CED-4", "setting": "[3]; [4]", "value": "statistically insignificant"}]}]}
